In publication PMC6265255:

Molecular target: human FcγRIIA (R131 variant) expressed on Jurkat cells (UniProt P12318)
Assay: FLIM
Conditions: Jurkat cells co-expressing FcγRIIA and Mac-1; donor anti-FcγRIIA IV.3 AF488 + acceptor anti-Mac-1 (CD11b) ICRF44 AF568; n = 3 experiments

Sequence of UniProt P12318 (P12318 34-217, change not shown): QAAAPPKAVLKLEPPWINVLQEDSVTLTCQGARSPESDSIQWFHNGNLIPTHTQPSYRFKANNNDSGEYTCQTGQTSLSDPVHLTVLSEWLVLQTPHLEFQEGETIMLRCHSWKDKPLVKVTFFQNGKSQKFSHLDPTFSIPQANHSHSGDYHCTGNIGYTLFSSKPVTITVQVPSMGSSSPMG

other: FcγRIIA fluorescence lifetime tm (donor + acceptor): 1830 ps
Substance: human Mac-1 (CD11b/CD18), wild type, expressed on Jurkat cells (from UniProt P11215;P05107) E253-R261 (… replaced with … of CD11a)
